Data from patent publication US20240317847A1 (Bayer, published 2024).
Numbering of substitutions follows the chain as printed. Where two headings read alike, the source gives them in different places. Each block holds one binder with its values, some of them ahead of it.

Assays:
[1] = molecular target: T1, human IL-11 (human, UniProt P20809 22-199); experiment: cell-based or functional assay
T1 sequence: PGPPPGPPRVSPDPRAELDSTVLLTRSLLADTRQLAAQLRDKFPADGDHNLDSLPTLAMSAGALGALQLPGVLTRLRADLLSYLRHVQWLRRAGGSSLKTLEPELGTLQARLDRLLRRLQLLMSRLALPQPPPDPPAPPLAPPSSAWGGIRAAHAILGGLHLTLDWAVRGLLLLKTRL

[2] = molecular target: T2, murine IL-11 (mouse, UniProt P47873 22-199); experiment: cell-based or functional assay
T2 sequence: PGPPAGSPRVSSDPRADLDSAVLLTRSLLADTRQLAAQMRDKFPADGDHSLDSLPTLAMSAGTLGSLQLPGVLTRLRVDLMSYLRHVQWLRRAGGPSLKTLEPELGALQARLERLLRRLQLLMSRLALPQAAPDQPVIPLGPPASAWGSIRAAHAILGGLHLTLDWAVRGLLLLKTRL

[3] = molecular target: T1, human IL-11; experiment: SPR, antibody captured, IL-11 as analyte
Protocol: (§1) Antibodies were captured via anti-mouse Fc IgGs (“Mouse antibody capture kit, Order No. BR100383, Cytiva) covalently amine coupled to a Series S CM5 sensor chip (Cytiva). The amine coupling was carried out according to the manufacturer's instructions using 1-ethyl-3-(3-dimethylaminopropyl) carbodiimide hydrochloride (EDC), N-hydroxysuccinimide (NHS) and ethanolamine HCl, pH 8.5 (“Amine Coupling Kit” BR-1000-50, Cytiva.). Human IL-11 (Invigate, e.g., lot #C121021-19), and murine IL-11 (Invigate, e.g., lot #C210819-09) were used as analytes. […] Based on that experiment an IL-11 concentration range was chosen to optimally determine kinetics and affinity of anti-IL-11 antibodies in multicycle kinetics mode. The sensor surface was regenerated with glycine pH 1.7 after each antigen injection. Obtained sensorgrams were double referenced (subtraction of reference flow cell signal and buffer injection) and were fitted to a 1:1 Langmuir binding model to derive kinetic data using the Biacore T200 Evaluation software or the Biacore Insight software.
(§2) For the 2nd round of germlining, single reversions were then combined on DNA level, expressed and purified as described in Example 15, and tested by SPR as described in Example 16.

[4] = molecular target: T2, murine IL-11; experiment: SPR, antibody captured, IL-11 as analyte
Protocol: as §1, §2

[5] = molecular target: T3, human IL-11 (human, UniProt P20809 22-199); experiment: cell-based or functional assay; remark: listed apart in the source
T3 sequence: T1 sequence

[6] = molecular target: T4, murine IL-11 (mouse, UniProt P47873 22-199); experiment: cell-based or functional assay; remark: listed apart in the source
T4 sequence: T2 sequence

[7] = molecular target: T5, rat IL-11 (rat, UniProt Q99MF5 22-199); experiment: SPR, antibody captured, IL-11 as analyte
T5 construct: Invigate, e.g. lot #C301019-19; also called rIL11
T5 sequence: T2 sequence with S50N, L84F, G94A, V137A, I138V

[8] = molecular target: T6, cynomolgus IL-11 (cynomolgus, UniProt P20808 22-199); experiment: SPR, antibody captured, IL-11 as analyte
T6 construct: Invigate, lot #C290621-19; also called cIL11; cynoL-11
T6 sequence: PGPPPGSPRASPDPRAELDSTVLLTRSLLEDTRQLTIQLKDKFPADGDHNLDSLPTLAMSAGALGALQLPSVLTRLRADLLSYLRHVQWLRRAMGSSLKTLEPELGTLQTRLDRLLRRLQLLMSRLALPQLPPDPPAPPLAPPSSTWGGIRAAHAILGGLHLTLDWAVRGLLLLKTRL

[9] = molecular target: T3, human IL-11; experiment: SPR, antibody captured, IL-11 as analyte
[10] = molecular target: T4, murine IL-11; experiment: SPR, antibody captured, IL-11 as analyte

Efficacy (%), RGA [1]: 43.2%
IC50, RGA [1]: 19 nM
Efficacy (%), RGA [2]: 82.4%
IC50, RGA [2]: 1.9 nM
Kd [3]: 5.4 nM
Kd [4]: 1.1 nM
B2: TPP-27159 (antibody, human IgG1, lambda, V domains shown)
VH: EVQLLESGGGLVQPGGSLRLSCAASGFTFSSYGMHWVRQAPGKGLEWVAVISYDGSYKYYADSVKGRFTISRDNSKNTLYLQMNSLRAEDTAVYYCAAGVPDYWGQGTLVTVSS
VL: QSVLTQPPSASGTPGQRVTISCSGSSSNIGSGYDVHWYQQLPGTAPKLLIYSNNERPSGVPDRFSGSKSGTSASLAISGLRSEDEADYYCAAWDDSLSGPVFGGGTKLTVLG
notes: hIgG1, Lambda

Efficacy (%), RGA [1]: 2.9%
Efficacy (%), RGA [2]: 52.3%
IC50, RGA [2]: 52 nM
Kd [3]: 12 nM
Kd [4]: 28 nM
B5: TPP-27163 (antibody, V domains shown)
VH: B2 VH
VL: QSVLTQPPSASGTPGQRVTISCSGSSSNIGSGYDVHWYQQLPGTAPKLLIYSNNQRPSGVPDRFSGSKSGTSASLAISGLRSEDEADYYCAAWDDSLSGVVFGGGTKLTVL

Efficacy (%), RGA [1]: 36%
IC50, RGA [1]: 91 nM
Efficacy (%), RGA [2]: 77.6%
IC50, RGA [2]: 3.3 nM
Kd [3]: 7.4 nM
Kd [4]: 3.2 nM
B6: TPP-27162 (antibody, V domains shown)
VH: B2 VH
VL: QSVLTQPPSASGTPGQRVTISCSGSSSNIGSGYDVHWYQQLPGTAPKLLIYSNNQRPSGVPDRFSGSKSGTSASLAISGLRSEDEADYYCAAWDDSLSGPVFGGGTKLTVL

RGA Efficacy (%) [5]: 71.8%
RGA IC50 [5]: 0.72 nM
RGA Efficacy (%) [6]: 91.8%
RGA IC50 [6]: 0.19 nM
Kd [7]: 0.067 nM
Kd [8]: 0.14 nM
Kd [9]: 0.2 nM
Kd [10]: 0.091 nM
B10: TPP-29404 (antibody, human IgG1, V domains shown)
VH: B2 VH with M34G, V50L
VL: QSVLTQPPSASGTPGQRVTISCSGSSSNIGSYYDVHWYQQLPGTAPKLLIYSNNERPSGVPDRFSGSKSGTSASLAISGLRSEDEADYYCAAWDSSLSGPVFGGGTKLTVL

Efficacy (%), RGA [1]: -2.8%
Efficacy (%), RGA [2]: 63.8%
IC50, RGA [2]: 10 nM
Kd [3]: 180 nM
Kd [4]: 56 nM
B11: TPP-27160 (antibody, V domains shown)
VH: B2 VH
VL: B10 VL with Y32G, S52D, S95D

Further lines, the binder ahead of its results:

B1: TPP-21150 (antibody, V domains shown)
VH: B2 VH with A49S
VL: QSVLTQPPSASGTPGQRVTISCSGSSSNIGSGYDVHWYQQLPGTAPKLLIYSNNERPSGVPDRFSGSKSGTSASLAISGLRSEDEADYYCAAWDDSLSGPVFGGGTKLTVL
Efficacy (%), RGA [1]: 46.9%
IC50, RGA [1]: 12 nM
Efficacy (%), RGA [2]: 92.2%
IC50, RGA [2]: 1.6 nM
Kd [3]: 5.6 nM
Kd [4]: 1.4 nM

B3: TPP-27155 (antibody, V domains shown)
VH: B2 VH with A49S
VL: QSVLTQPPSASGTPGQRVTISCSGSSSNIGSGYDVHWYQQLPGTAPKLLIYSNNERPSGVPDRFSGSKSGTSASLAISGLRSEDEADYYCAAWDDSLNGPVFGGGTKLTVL
Efficacy (%), RGA [1]: 56.5%
IC50, RGA [1]: 20 nM
Efficacy (%), RGA [2]: 94.3%
IC50, RGA [2]: 1.1 nM
Kd [3]: 5.8 nM
Kd [4]: 0.65 nM

B4: TPP-21158 (antibody, V domains shown)
VH: B2 VH with A98R
VL: B10 VL with S23T, S31A, Y32G, S95D, S98N
Efficacy (%), RGA [1]: 19.4%
Efficacy (%), RGA [2]: 73.2%
IC50, RGA [2]: 2.4 nM
Kd [3]: 47 nM
Kd [4]: 13 nM

B7: TPP-21153 (antibody, V domains shown)
VH: B2 VH with A49S
VL: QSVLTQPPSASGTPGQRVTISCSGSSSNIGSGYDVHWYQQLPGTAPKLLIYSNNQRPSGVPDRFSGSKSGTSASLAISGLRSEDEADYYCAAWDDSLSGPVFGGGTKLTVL
Efficacy (%), RGA [1]: 34%
IC50, RGA [1]: 26 nM
Efficacy (%), RGA [2]: 81.2%
IC50, RGA [2]: 3.4 nM
Kd [3]: 10 nM
Kd [4]: 3.6 nM

B8: TPP-27156 (antibody, V domains shown)
VH: B2 VH
VL: B10 VL with S23T, S31A, Y32G, S95D, S98N
Efficacy (%), RGA [1]: 50.4%
IC50, RGA [1]: 15 nM
Efficacy (%), RGA [2]: 90.6%
IC50, RGA [2]: 1.2 nM
Kd [3]: 6.6 nM
Kd [4]: 0.45 nM

B9: TPP-27158 (antibody, V domains shown)
VH: B2 VH
VL: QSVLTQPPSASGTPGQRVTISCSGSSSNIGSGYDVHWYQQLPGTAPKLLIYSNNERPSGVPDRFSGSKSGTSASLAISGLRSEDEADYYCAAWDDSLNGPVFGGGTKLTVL
Efficacy (%), RGA [1]: 55.8%
IC50, RGA [1]: 20 nM
Efficacy (%), RGA [2]: 89.9%
IC50, RGA [2]: 1.4 nM
Kd [3]: 5.9 nM
Kd [4]: 0.4 nM

B12: TPP-27157 (antibody, V domains shown)
VH: B2 VH
VL: B10 VL with S23T, S31A, Y32G, S95D
Efficacy (%), RGA [1]: 51.2%
IC50, RGA [1]: 13 nM
Efficacy (%), RGA [2]: 86.4%
IC50, RGA [2]: 1.4 nM
Kd [3]: 5.1 nM
Kd [4]: 1.1 nM

B13: TPP-21157 (antibody, V domains shown)
VH: B2 VH with A49S
VL: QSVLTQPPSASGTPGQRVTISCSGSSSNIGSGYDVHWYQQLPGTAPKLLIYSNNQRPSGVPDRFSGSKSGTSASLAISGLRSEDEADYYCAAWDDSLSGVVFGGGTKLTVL
Efficacy (%), RGA [1]: 13.4%
Efficacy (%), RGA [2]: 59.2%
IC50, RGA [2]: 44 nM
Kd [3]: 13 nM
Kd [4]: 73 nM

B14: TPP-27154 (antibody, V domains shown)
VH: B2 VH with A49S
VL: B10 VL with S23T, S31A, Y32G, S95D
Efficacy (%), RGA [1]: 58.7%
IC50, RGA [1]: 24 nM
Efficacy (%), RGA [2]: 92.9%
IC50, RGA [2]: 1.8 nM
Kd [3]: 5.4 nM
Kd [4]: 1.3 nM
